In general, Kd refers to the free concentration of one partner at which half of the binding sites on the other are occupied at equilibrium, for simple one-to-one binding. Read a high Kd as weaker binding.

First the molecules themselves.
T1: EsCas13d, nuclease-dead (Eubacterium siraeum, UniProt B0MS50, R295A;H300A;R849A;H854A)
T1 sequence: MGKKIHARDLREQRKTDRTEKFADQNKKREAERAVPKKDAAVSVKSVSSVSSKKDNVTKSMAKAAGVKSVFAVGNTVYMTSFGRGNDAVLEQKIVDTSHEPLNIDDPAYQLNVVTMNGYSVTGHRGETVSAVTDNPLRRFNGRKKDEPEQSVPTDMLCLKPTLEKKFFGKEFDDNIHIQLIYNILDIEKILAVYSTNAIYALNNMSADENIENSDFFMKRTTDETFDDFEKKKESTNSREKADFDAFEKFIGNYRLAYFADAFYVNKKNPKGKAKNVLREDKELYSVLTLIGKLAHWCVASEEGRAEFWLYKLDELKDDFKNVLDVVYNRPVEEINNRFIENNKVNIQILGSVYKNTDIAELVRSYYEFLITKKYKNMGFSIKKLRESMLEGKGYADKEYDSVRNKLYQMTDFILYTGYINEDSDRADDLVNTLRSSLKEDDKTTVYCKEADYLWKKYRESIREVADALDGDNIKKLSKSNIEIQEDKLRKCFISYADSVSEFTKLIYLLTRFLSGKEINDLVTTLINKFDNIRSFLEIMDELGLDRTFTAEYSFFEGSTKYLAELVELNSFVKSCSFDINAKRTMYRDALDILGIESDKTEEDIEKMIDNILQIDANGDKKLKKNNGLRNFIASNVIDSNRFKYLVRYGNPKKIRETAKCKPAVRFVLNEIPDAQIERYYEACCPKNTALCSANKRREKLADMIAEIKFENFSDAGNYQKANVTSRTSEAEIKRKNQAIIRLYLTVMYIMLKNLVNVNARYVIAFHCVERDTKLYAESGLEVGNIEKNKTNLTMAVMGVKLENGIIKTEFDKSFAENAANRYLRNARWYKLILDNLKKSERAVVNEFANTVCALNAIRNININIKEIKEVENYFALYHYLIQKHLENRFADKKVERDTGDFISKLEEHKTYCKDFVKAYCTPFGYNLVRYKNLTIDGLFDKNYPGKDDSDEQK

B1: target 1 C2U,G12A (mixed)
RNA 1: CACCCGUGCAAAAAUGCAGGGGUCUAAAACUGAGCGGAUAACCUCUCUAUGG
RNA 2: GGGAAUGGAUCCACAUCUACGAAUUCGUACCAUAGAGAGAUUAUCCGCUUACCGAGAUCGGAAGAGCACACGU
B2: target 1 insU 3' of 18,insG 3' of 11 (mixed)
RNA 1: CACCCGUGCAAAAAUGCAGGGGUCUAAAACUGAGCGGAUAACCUCUCUAUGG
RNA 2: GGGAAUGGAUCCACAUCUACGAAUUCGUACCAUAUGAGAGGUGUAUCCGCUCACCGAGAUCGGAAGAGCACACGU
B3: target 1 G5C,U8C (mixed)
RNA 1: CACCCGUGCAAAAAUGCAGGGGUCUAAAACUGAGCGGAUAACCUCUCUAUGG
RNA 2: GGGAAUGGAUCCACAUCUACGAAUUCGUACCAUAGAGAGGUUACCCCCUCACCGAGAUCGGAAGAGCACACGU
B4: target 3 insG 3' of 6,insG 3' of 6 (mixed)
RNA 1: CACCCGUGCAAAAUUGCAGGGGUCUAAAACGACCUGAAUAUUUCAGAUCAAA
RNA 2: GGGAAUGGAUCCACAUCUACGAAUUCGUUUUUGAUCUGAAAUAUUCGGAGGUCUGCAGAUCGGAAGAGCACACGU
B5: target 3 insC 3' of 4,insC 3' of 4 (mixed)
RNA 1: CACCCGUGCAAAAUUGCAGGGGUCUAAAACGACCUGAAUAUUUCAGAUCAAA
RNA 2: GGGAAUGGAUCCACAUCUACGAAUUCGUUUUUGAUCUGAAAUAUUCAGCCGUCUGCAGAUCGGAAGAGCACACGU
B6: target 3 C6U,U21G (mixed)
RNA 1: CACCCGUGCAAAAUUGCAGGGGUCUAAAACGACCUGAAUAUUUCAGAUCAAA
RNA 2: GGGAAUGGAUCCACAUCUACGAAUUCGUUUGUGAUCUGAAAUAUUUAGGUCUGCAGAUCGGAAGAGCACACGU
B7: target 3 insC 3' of 5,insG 3' of 5 (mixed)
RNA 1: CACCCGUGCAAAAUUGCAGGGGUCUAAAACGACCUGAAUAUUUCAGAUCAAA
RNA 2: GGGAAUGGAUCCACAUCUACGAAUUCGUUUUUGAUCUGAAAUAUUCACGGGUCUGCAGAUCGGAAGAGCACACGU
B8: target 3 insC 3' of 22,insA 3' of 2 (mixed)
RNA 1: CACCCGUGCAAAAUUGCAGGGGUCUAAAACGACCUGAAUAUUUCAGAUCAAA
RNA 2: GGGAAUGGAUCCACAUCUACGAAUUCGUUUCUUGAUCUGAAAUAUUCAGGUACUGCAGAUCGGAAGAGCACACGU
B9: target 3 insU 3' of 9,insC 3' of 9 (mixed)
RNA 1: CACCCGUGCAAAAUUGCAGGGGUCUAAAACGACCUGAAUAUUUCAGAUCAAA
RNA 2: GGGAAUGGAUCCACAUCUACGAAUUCGUUUUUGAUCUGAAAUAUCUUCAGGUCUGCAGAUCGGAAGAGCACACGU
B10: target 3 insC 3' of 5,insA 3' of 2 (mixed)
RNA 1: CACCCGUGCAAAAUUGCAGGGGUCUAAAACGACCUGAAUAUUUCAGAUCAAA
RNA 2: GGGAAUGGAUCCACAUCUACGAAUUCGUUUUUGAUCUGAAAUAUUCACGGUACUGCAGAUCGGAAGAGCACACGU
B11: target 3 G4U,U22C (mixed)
RNA 1: CACCCGUGCAAAAUUGCAGGGGUCUAAAACGACCUGAAUAUUUCAGAUCAAA
RNA 2: GGGAAUGGAUCCACAUCUACGAAUUCGUUCUUGAUCUGAAAUAUUCAUGUCUGCAGAUCGGAAGAGCACACGU
B12: target 3 C1U,G14U (mixed)
RNA 1: CACCCGUGCAAAAUUGCAGGGGUCUAAAACGACCUGAAUAUUUCAGAUCAAA
RNA 2: GGGAAUGGAUCCACAUCUACGAAUUCGUUUUUGAUCUUAAAUAUUCAGGUUUGCAGAUCGGAAGAGCACACGU
B13: target 3 A5G,A11G (mixed)
RNA 1: CACCCGUGCAAAAUUGCAGGGGUCUAAAACGACCUGAAUAUUUCAGAUCAAA
RNA 2: GGGAAUGGAUCCACAUCUACGAAUUCGUUUUUGAUCUGAAGUAUUCGGGUCUGCAGAUCGGAAGAGCACACGU
B14: target 3 insA 3' of 7,insG 3' of 2 (mixed)
RNA 1: CACCCGUGCAAAAUUGCAGGGGUCUAAAACGACCUGAAUAUUUCAGAUCAAA
RNA 2: GGGAAUGGAUCCACAUCUACGAAUUCGUUUUUGAUCUGAAAUAUUACAGGUGCUGCAGAUCGGAAGAGCACACGU
B15: target 3 insA 3' of 3,insC 3' of 3 (mixed)
RNA 1: CACCCGUGCAAAAUUGCAGGGGUCUAAAACGACCUGAAUAUUUCAGAUCAAA
RNA 2: GGGAAUGGAUCCACAUCUACGAAUUCGUUUUUGAUCUGAAAUAUUCAGGACUCUGCAGAUCGGAAGAGCACACGU
B16: target 3 insA 3' of 6,insU 3' of 4 (mixed)
RNA 1: CACCCGUGCAAAAUUGCAGGGGUCUAAAACGACCUGAAUAUUUCAGAUCAAA
RNA 2: GGGAAUGGAUCCACAUCUACGAAUUCGUUUUUGAUCUGAAAUAUUCAAGUGUCUGCAGAUCGGAAGAGCACACGU
B17: target 3 G4U,C6A (mixed)
RNA 1: CACCCGUGCAAAAUUGCAGGGGUCUAAAACGACCUGAAUAUUUCAGAUCAAA
RNA 2: GGGAAUGGAUCCACAUCUACGAAUUCGUUUUUGAUCUGAAAUAUUAAUGUCUGCAGAUCGGAAGAGCACACGU
B18: target 3 A11C,U22A (mixed)
RNA 1: CACCCGUGCAAAAUUGCAGGGGUCUAAAACGACCUGAAUAUUUCAGAUCAAA
RNA 2: GGGAAUGGAUCCACAUCUACGAAUUCGUUAUUGAUCUGAACUAUUCAGGUCUGCAGAUCGGAAGAGCACACGU
B19: target 3 G3U,U21A (mixed)
RNA 1: CACCCGUGCAAAAUUGCAGGGGUCUAAAACGACCUGAAUAUUUCAGAUCAAA
RNA 2: GGGAAUGGAUCCACAUCUACGAAUUCGUUUAUGAUCUGAAAUAUUCAGUUCUGCAGAUCGGAAGAGCACACGU
B20: target 3 U2A,U22A (mixed)
RNA 1: CACCCGUGCAAAAUUGCAGGGGUCUAAAACGACCUGAAUAUUUCAGAUCAAA
RNA 2: GGGAAUGGAUCCACAUCUACGAAUUCGUUAUUGAUCUGAAAUAUUCAGGACUGCAGAUCGGAAGAGCACACGU
B21: target 3 insC 3' of 4,insU 3' of 1 (mixed)
RNA 1: CACCCGUGCAAAAUUGCAGGGGUCUAAAACGACCUGAAUAUUUCAGAUCAAA
RNA 2: GGGAAUGGAUCCACAUCUACGAAUUCGUUUUUGAUCUGAAAUAUUCAGCGUCUUGCAGAUCGGAAGAGCACACGU
B22: target 3 G3C,G4C (mixed)
RNA 1: CACCCGUGCAAAAUUGCAGGGGUCUAAAACGACCUGAAUAUUUCAGAUCAAA
RNA 2: GGGAAUGGAUCCACAUCUACGAAUUCGUUUUUGAUCUGAAAUAUUCACCUCUGCAGAUCGGAAGAGCACACGU
B23: target 3 insU 3' of 6,insC 3' of 3 (mixed)
RNA 1: CACCCGUGCAAAAUUGCAGGGGUCUAAAACGACCUGAAUAUUUCAGAUCAAA
RNA 2: GGGAAUGGAUCCACAUCUACGAAUUCGUUUUUGAUCUGAAAUAUUCUAGGCUCUGCAGAUCGGAAGAGCACACGU
B24: target 3 insC 3' of 5,insU 3' of 1 (mixed)
RNA 1: CACCCGUGCAAAAUUGCAGGGGUCUAAAACGACCUGAAUAUUUCAGAUCAAA
RNA 2: GGGAAUGGAUCCACAUCUACGAAUUCGUUUUUGAUCUGAAAUAUUCACGGUCUUGCAGAUCGGAAGAGCACACGU
B25: target 3 insU 3' of 22,insA 3' of 6 (mixed)
RNA 1: CACCCGUGCAAAAUUGCAGGGGUCUAAAACGACCUGAAUAUUUCAGAUCAAA
RNA 2: GGGAAUGGAUCCACAUCUACGAAUUCGUUUUUUGAUCUGAAAUAUUCAAGGUCUGCAGAUCGGAAGAGCACACGU
B26: target 3 G3C,U22G (mixed)
RNA 1: CACCCGUGCAAAAUUGCAGGGGUCUAAAACGACCUGAAUAUUUCAGAUCAAA
RNA 2: GGGAAUGGAUCCACAUCUACGAAUUCGUUGUUGAUCUGAAAUAUUCAGCUCUGCAGAUCGGAAGAGCACACGU
B27: target 3 insA 3' of 22,insG 3' of 5 (mixed)
RNA 1: CACCCGUGCAAAAUUGCAGGGGUCUAAAACGACCUGAAUAUUUCAGAUCAAA
RNA 2: GGGAAUGGAUCCACAUCUACGAAUUCGUUUAUUGAUCUGAAAUAUUCAGGGUCUGCAGAUCGGAAGAGCACACGU

This series addresses T1, EsCas13d, nuclease-dead. As to the kind of experiment: crRNA (strand 1, pre-loaded); Mg2+; 40 mM Tris-HCl pH 7.5, 150 mM NaCl, 6 mM MgCl2, 1 mM DTT, 0.1% Tween-20, 0.2 mg/ml BSA; 25 C; 10 min per concentration, then washed. The settings on record: tags: His6-TwinStrep-SUMO cleaved; N-terminal SNAP kept (SNAP-Surface 488); label: 3' end held by stalled T7 RNA polymerase.
Consider B1, for which binding was characterised by a dissociation constant (Kd) of 4.5 ± 0.14 nM.
The result for B2 reads 78 ± 21 nM; that for B3, 6.4 ± 0.4 nM; that for B4, 23.6 ± 3.2 nM.
With B5, the Kd is 34.5 ± 8.5 nM.
The result for B6 reads 110 ± 40 nM; that for B7, 5.57 ± 0.52 nM; that for B8, 59 ± 10 nM.
For the molecule B9, the Kd was 96.5 ± 19 nM.
The result for B10 reads 15.8 ± 1.6 nM; that for B11, 4.65 ± 0.85 nM; that for B12, 72.5 ± 19 nM.
On to B13, for which binding was characterised by a dissociation constant (Kd) of 73.5 ± 28.5 nM.
Turning to B14, the Kd turned out to be 28.2 ± 4.15 nM.
The molecule B15 came in with a Kd of 22.8 ± 2.35 nM.
For B16 the value was 2.25 ± 0.23 nM.
The result for B17 reads 29.5 ± 7.5 nM; that for B18, about 90 nM; that for B19, 87.5 ± 15.5 nM.
The result for B20 reads 32.8 ± 2.85 nM.
B21: the Kd was determined as 72.5 ± 33.5 nM.
The result for B22 reads 36.1 ± 5.75 nM; that for B23, 28.6 ± 2.95 nM.
The result for B24 reads 10.8 ± 1.25 nM.
For B25, the Kd turned out to be 7.2 ± 0.55 nM.
For B26 the value was 79.5 ± 13 nM; for B27, 23.1 ± 3.4 nM.

The values above are taken from publication PMC10786891, “Massively parallel profiling of RNA-targeting CRISPR-Cas13d”.
